Measurements taken from US20230395187A1 (published 2023).

Target: SARS-CoV-2 spike protein, WT (SARS-CoV-2, UniProt P0DTC2 14-1208)
Assay: virus-free Luminex binding assay, spike on beads

B1: Imdevimab (RGN87) (antibody, V domains shown)
VH: QVQLVESGGGVVQPGRSLRLSCAASGFTFSNYAMYWVRQAPGKGLEWVAVISYDGSNKYYADSVKGRFTISRDNSKNTLYLQMNSLRTEDTAVYYCASGSDYGDYLLVYWGQGTLVTVSS
VL: QSALTQPASVSGSPGQSITISCTGTSSDVGGYNYVSWYQQHPGKAPKLMIYDVSKRPSGVSNRFSGSKSGNTASLTISGLQSEDEADYYCNSLTSISTWVFGGGTKLTVLG
EC50: 0.082 µg/mL
